Reference: US11306156

What was measured:
[1] = target: D3H44 Fab heavy chain L124E_L143D_K145T, C-terminal ABD2-His6 tag; test: LCCA set 9217 (co-expression; SPR read-out of light-chain tags; L1:L2 DNA 1:3, normalized to 1:1); competing light chain m16
[2] = target: D3H44 Fab heavy chain L124R_Q179K, C-terminal ABD2-His6 tag; test: LCCA co-expression, SPR tag read-out; DNA 1:3 norm. to 1:1; competing light chain m11
[3] = target: D3H44 Fab heavy chain L124E_L143E_K145T, C-terminal ABD2-His6 tag; test: as above
[4] = target: D3H44 Fab heavy chain L124E_L143E_K145M, C-terminal ABD2-His6 tag; test: LCCA co-expression, SPR tag read-out; DNA 1:3 norm. to 1:1; competing light chain m13
[5] = target: D3H44 Fab heavy chain L124R_Q179K, C-terminal ABD2-His6 tag; test: as above
[6] = target: D3H44 Fab heavy chain L124E_L143E_K145T, C-terminal ABD2-His6 tag; test: as above
[7] = target: D3H44 Fab heavy chain L124E_L143D_K145M, C-terminal ABD2-His6 tag; test: LCCA set 9176 (co-expression; SPR read-out of light-chain tags; L1:L2 DNA 1:3, normalized to 1:1); competing light chain m15
[8] = target: D3H44 Fab heavy chain L124R_S186K, C-terminal ABD2-His6 tag; test: LCCA set 9473 (co-expression; SPR read-out of light-chain tags; L1:L2 DNA 1:3, normalized to 1:1); competing light chain m16
[9] = target: D3H44 Fab heavy chain L124E_L143E_K145M, C-terminal ABD2-His6 tag; test: LCCA (co-expression, SPR read-out of light chain tags), L1:L2 DNA 1:3 normalised to 1:1; competitor m13
[10] = target: D3H44 Fab heavy chain L124E_L143D_K145M, C-terminal ABD2-His6 tag; test: as above
[11] = target: D3H44 Fab heavy chain L124R_Q179K, C-terminal ABD2-His6 tag; test: as above
[12] = target: D3H44 Fab heavy chain L124E_L143D_K145T, C-terminal ABD2-His6 tag; test: as above
[13] = target: D3H44 Fab heavy chain L124R_Q179K, C-terminal ABD2-His6 tag; test: LCCA set 9384 (co-expression; SPR read-out of light-chain tags; L1:L2 DNA 1:3, normalized to 1:1); competing light chain m17
[14] = target: D3H44 Fab heavy chain L124R_S186K, C-terminal ABD2-His6 tag; test: LCCA set 9451 (co-expression; SPR read-out of light-chain tags; L1:L2 DNA 1:3, normalized to 1:1); competing light chain m15
[15] = target: D3H44 Fab heavy chain L124E_L143E_K145M, C-terminal ABD2-His6 tag; test: LCCA set 9257 (co-expression; SPR read-out of light-chain tags; L1:L2 DNA 1:3, normalized to 1:1); competing light chain m15
[16] = target: D3H44 Fab heavy chain L124R_S186K, C-terminal ABD2-His6 tag; test: LCCA (co-expression, SPR read-out of light chain tags), L1:L2 DNA 1:3 normalised to 1:1; competitor m17
[17] = target: D3H44 Fab heavy chain L124E_L143E_K145T, C-terminal ABD2-His6 tag; test: as above
[18] = target: D3H44 Fab heavy chain L124R_S186R, C-terminal ABD2-His6 tag; test: as above
[19] = target: D3H44 Fab heavy chain L124R_S186R, C-terminal ABD2-His6 tag; test: LCCA set 9505 (co-expression; SPR read-out of light-chain tags; L1:L2 DNA 1:3, normalized to 1:1); competing light chain m15
[20] = target: D3H44 Fab heavy chain L124R_Q179K, C-terminal ABD2-His6 tag; test: LCCA (co-expression, SPR read-out of light chain tags), L1:L2 DNA 1:3 normalised to 1:1; competitor m16
[21] = target: D3H44 Fab heavy chain L124E_L143D_K145T, C-terminal ABD2-His6 tag; test: as above
[22] = target: D3H44 Fab heavy chain L124E_L143E_K145T, C-terminal ABD2-His6 tag; test: as above
[23] = target: D3H44 Fab heavy chain L124R_S186R, C-terminal ABD2-His6 tag; test: as above
[24] = target: D3H44 Fab heavy chain L124E_L143E_K145T, C-terminal ABD2-His6 tag; test: LCCA set 9298 (co-expression; SPR read-out of light-chain tags; L1:L2 DNA 1:3, normalized to 1:1); competing light chain m17
[25] = target: D3H44 Fab heavy chain L124E_L143D_K145T, C-terminal ABD2-His6 tag; test: LCCA set 9214 (co-expression; SPR read-out of light-chain tags; L1:L2 DNA 1:3, normalized to 1:1); competing light chain m15
[26] = target: D3H44 Fab heavy chain L124E_L143E_K145M, C-terminal ABD2-His6 tag; test: LCCA set 9263 (co-expression; SPR read-out of light-chain tags; L1:L2 DNA 1:3, normalized to 1:1); competing light chain m14
[27] = target: D3H44 Fab heavy chain L124E_L143E_K145M, C-terminal ABD2-His6 tag; test: LCCA set 9259 (co-expression; SPR read-out of light-chain tags; L1:L2 DNA 1:3, normalized to 1:1); competing light chain m17

Substance “D3H44 light chain Q124K_V133G_S176R_T178K, N-terminal HA or FLAG tag” has an H1L1:H1L2 normalized median ratio (H1L1 part) [1] of 82%, an H1L1:H1L2 normalized median scalar value ln(r1/f1) [1] of 1.52 and an H2L2:H2L1 normalized median ratio (% (ratio normalized to 100)) [2] of 4. For the same substance, the H1L1:H1L2 normalized median ratio (% (ratio normalized to 100)) [3] was 89, the H1L1:H1L2 normalized median scalar value ln(r1/f1) [3] was 2.12 and the H1L1:H1L2 normalized median ratio (% (ratio normalized to 100)) [4] was 88. It also gave an H1L1:H1L2 normalized median scalar value ln(r1/f1) [4] of 1.95, an H2L2:H2L1 normalized median ratio (% (ratio normalized to 100)) [5] of 4 and an H1L1:H1L2 normalized median ratio (% (ratio normalized to 100)) [6] of 89. For the same substance, the H1L1:H1L2 normalized median scalar value ln(r1/f1) [6] was 2.08, the H1L1:H1L2 normalized median ratio (H1L1 part) [7] was 83% and the H1L1:H1L2 normalized median scalar value ln(r1/f1) [7] was 1.62. For the same substance, the H2L2:H2L1 normalized median ratio (H2L1 part) [8] was 7%, the H1L1:H1L2 normalized median ratio [9] was 85% and the H1L1:H1L2 normalized median scalar value ln(r1/f1) [9] was 1.77. The H1L1:H1L2 normalized median ratio [10] was 85%, the H1L1:H1L2 normalized median scalar value ln(r1/f1) [10] was 1.76 and the H2L2:H2L1 normalized median ratio [11] was 4%. For the same substance, the H1L1:H1L2 normalized median ratio [12] was 84%, the H1L1:H1L2 normalized median scalar value ln(r1/f1) [12] was 1.66 and the H2L2:H2L1 normalized median ratio (H2L1 part) [13] was 8%. The H2L2:H2L1 normalized median ratio (H2L1 part) [14] was 7%, the H1L1:H1L2 normalized median ratio (H1L1 part) [15] was 84% and the H1L1:H1L2 normalized median scalar value ln(r1/f1) [15] was 1.65. The H2L2:H2L1 normalized median ratio [16] was 7%, the H1L1:H1L2 normalized median ratio [17] was 87% and the H1L1:H1L2 normalized median scalar value ln(r1/f1) [17] was 1.89. The H2L2:H2L1 normalized median ratio [18] was 6%, the H2L2:H2L1 normalized median ratio (H2L1 part) [19] was 6% and the H2L2:H2L1 normalized median ratio [20] was 4%. For the same substance, the H1L1:H1L2 normalized median ratio [21] was 81%, the H1L1:H1L2 normalized median ratio [22] was 89% and the H1L1:H1L2 normalized median scalar value ln(r1/f1) [22] was 2.08. For the same substance, the H2L2:H2L1 normalized median ratio [23] was 8%, the H1L1:H1L2 normalized median ratio (H1L1 part) [24] was 88% and the H1L1:H1L2 normalized median ratio (H1L1 part) [25] was 85%. It also gave an H1L1:H1L2 normalized median scalar value ln(r1/f1) [25] of 1.71, an H1L1:H1L2 normalized median ratio (H1L1 part) [26] of 88% and an H1L1:H1L2 normalized median scalar value ln(r1/f1) [26] of 1.95. For the same substance, the H1L1:H1L2 normalized median ratio (H1L1 part) [27] was 84% and the H1L1:H1L2 normalized median scalar value ln(r1/f1) [27] was 1.67.
